The target in assay [1] is T1, fusion protein of region 399-540 of human ADAM28s added to the C-terminal of MBP (human).
T1 chain: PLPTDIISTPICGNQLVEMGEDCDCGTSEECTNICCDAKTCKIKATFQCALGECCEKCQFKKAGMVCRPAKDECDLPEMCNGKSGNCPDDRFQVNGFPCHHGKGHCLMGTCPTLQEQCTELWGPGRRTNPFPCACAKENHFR
Kind of assay: Western blotting of MBP fusion proteins. Background: Immunoblotting shows a protein as a band on a membrane.

Assay [2] deals with T2, fusion protein of region 491-540 of human ADAM28s added to the C-terminal of MBP (human).
T2 construct: also called MBP-ADAM28s 491-540
T2 chain: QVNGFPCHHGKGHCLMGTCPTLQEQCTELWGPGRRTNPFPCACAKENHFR
Kind of assay: Western blotting of MBP fusion proteins.

The target of assay [3] is T3, peptide #25 of the human ADAM28s peptide array (FTLENFSKWRGS) (human).
T3 construct: 12-mer partial peptide of human ADAM28s, immobilized on an array
T3 peptide: FTLENFSKWRGS
Description: peptide array, HRP-labeled antibody. As for the experimental part: (§1) Specifically, as shown below, a peptide array consisting of peptides having the residue number of 12 amino acid residues with an offset of 3 amino acid residues were prepared for a sequence covering from the protease domain to the C-terminal of human ADAM28s. HRP-labeled anti-human ADAM28s antibody was reacted with the peptide array.

In assay [4] the target is T4, peptide #26 of the human ADAM28s peptide array (ENFSKWRGSVLS) (human).
T4 construct: 12-mer partial peptide of human ADAM28s, immobilized on an array
T4 peptide: ENFSKWRGSVLS
Kind of assay: peptide array, HRP-labeled antibody. As to the method: as §1

B1: anti-human ADAM28 human antibody 211-14 (antibody, V domains shown)
VH: QVQLQQSGPGLVKPSQTLSLTCAISGDSVSSNTAAWGWIRQSPGRGLEWLGVIYYRSKWYNDYAVSVKSRITINPDTSKNQFSLQLNSVTPEDTAVYYCARYKESIPEYGFDFWGQGTLVTVSS
VL: DIVMTQSPLSLPVTPGEPASISCRSSQSLLYSNGYIYLNWYLQKPGQSPQLLIYLGSNRASGVPDRFSGSGSGTDFTLKISRVEAEDVGVYYCFQYGGSPLTFGQGTKVEIKR
notes: Clone from the HuCAL GOLD phage library, first made as Fab, then converted to IgG (heavy chain constant region IgG1)
Consider B1, for which the binding result in assay [1] and in assay [2] was “binds” each time.

B2: anti-human ADAM28 human antibody 211-12 (antibody, V domains shown)
VH: QVQLVQSGAEVKKPGESLKISCKGSGYSFTSYWIAWVRQMPGKGLEWMGIIYPSDSYTRYSPSFQGQVTISADKSISTAYLQWSSLKASDTAMYYCARWSWMGRGFDNWGQGTLVTVSS
VL: DIQMTQSPSSLSASVGDRVTITCRASQDISSYLNWYQQKPGKAPKLLIYGVSTLQSGVPSRFSGSGSGTDFTLTISSLQPEDFATYYCLQYDSLPSTFGQGTKVEIKR
notes: Clone from the HuCAL GOLD phage library, first made as Fab, then converted to IgG (heavy chain constant region IgG1) in HEK293T cells; It was HRP-labeled in the peptide array
In the case of B2, the binding result in assay [3] and in assay [4] was “binds” throughout.

Values taken from patent US20150274840A1 (GENEFRONTIER, published 2015).
